In assay [1] the target is T1, MsCXCL1 (Mus musculus, UniProt P12850).
T1 sequence (P12850 25-96): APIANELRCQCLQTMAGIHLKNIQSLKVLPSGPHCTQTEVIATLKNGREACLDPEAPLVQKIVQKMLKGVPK
As to the kind of experiment: FACS, inhibition of binding of APC-labeled MsCXCL1 to HEK293 cells forced to express HuCXCR2. The class given is cell-based. The arrangement: purchased PROTEINTECH; host or cells: CXCR2: transfected HEK293 cells. The following applies: APC-labeled ligand 10 μg/mL; HEK293 cells expressing HuCXCR2. The method, then: Chemokines are stabilized by directly binding to GAG on the cell surface and thereby allow efficient signal transduction to their receptors. […] Then, to evaluate whether Hu5A-5E11 inhibits the binding of CXCLs to cells, the binding of fluorescently labeled CXCLs to cells was measured as fluorescence intensity by flow cytometry in FACS. For this purpose, HEK293 cells forced to express HuCXCR2 were used. For use as HuCXCL1, 2, 3 and 5 and MsCXCL1, the proteins in above were labeled with APC.
The cultured cells were detached and washed with PBS, and then suspended at 5.0× 10^5 cells/mL in PBS containing 1% BSA (hereinafter referred to as the FACS buffer). Each of the APC-labeled ligands and Hu5A-5E11 were mixed at final concentrations of 10 μg/mL and 16.7 μg/mL, respectively, and reacted at room temperature for 30 minutes, and then added to the cell suspension and reacted on ice for 30 minutes. After washing with the FACS buffer, the cells were suspended again in PBS containing 1% 7-AAD, 0.5% BSA and 2 mM EDTA, followed by the above flow cytometry to measure fluorescence intensity.

In assay [2] the test system is migration of HuCXCR2-expressing cells toward HuCXCL1. In words: Migration assay (Boyden chamber chemotaxis) of HuCXCR2-expressing cells toward HuCXCL1. It counts as cell-based, human. Conditions: HuCXCL1 200 ng per ml in lower chamber. As for the experimental part:
The 80 clones with neutralizing activity against HuCXCL1 were evaluated for their inhibitory activity against the migration of HuCXCR2-expressing cells toward HuCXCL1.
Cell chemotaxis was measured by Boyden chamber assay, and QCM Chemoraxis Cell Migration Assay (Sigma-Aldrich Corporation) was purchased and used as an assay kit. AequoScrenn/CXCR2 cells were used as HuCXCR2-expressing cells. An isotype control antibody and a goat anti-HuCXCL1 polyclonal antibody (hereinafter referred to as AF275) were purchased from R&D Systems and used.
The HuCXCR2-expressing cells were cultured overnight at 37° C. in a serum-free culture medium, and then suspended in the assay buffer and adjusted to 2×10^6 cells per ml. The upper chamber of a Boyden chamber was filled with the HuCXCR2-expressing cell suspension, while the lower chamber was filled with the assay buffer alone or a solution containing HuCXCL1 in an amount of 200 ng per ml with or without a purified antibody, followed by incubation overnight at 37° C.
After incubation, the upper chamber was washed with PBS, placed into a new lower chamber containing a Cell Detachment Solution (Sigma-Aldrich Corporation), and then allowed to stand at 37° C. for 30 minutes to detach the migrated cells adhered to the bottom of the membrane in the upper chamber.
The migrated cell suspension was supplemented with 4× Lysis Buffer (Sigma-Aldrich Corporation) in a volume of 75 μL per well and allowed to stand at room temperature for 20 minutes, followed by measurement of fluorescence at an excitation wavelength of 480 nm and a fluorescence wavelength of 520 nm. The above about 80 clones were screened and evaluated for their inhibitory activity against the migration of CXCR2 cells.

In assay [3] the target is T2, human CXCL3 (Homo sapiens, UniProt P19876).
T2 sequence (P19876 35-107): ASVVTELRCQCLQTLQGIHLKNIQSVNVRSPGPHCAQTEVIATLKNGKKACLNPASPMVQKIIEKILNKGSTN
In words: Binding to human CXCL3.

In assay [4] the target is T3, human CXCL5 (Homo sapiens, UniProt P42830).
T3 sequence (P42830 37-114): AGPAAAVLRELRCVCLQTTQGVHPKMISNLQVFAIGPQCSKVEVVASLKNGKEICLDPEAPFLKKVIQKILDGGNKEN
In words: Binding to human CXCL5.

For assay [5], the system named is OCUM-2MLN gastric cancer cell line. In words: Efficacy evaluation in a model with OCUM-2MLN orthotopic transplantation. Conditions: 20 mg/kg intraperitoneally twice a week, 3 weeks, compared to PBS control. The class given is in vivo, mouse. The method, then: Among the candidate antibodies, 3 types of antibodies (4A-2F7, 5A-5E11 and 028-8-12) were evaluated for their in vivo antitumor activity in a xenograft model with OCUM-2MLN orthotopic transplantation. Procedures for the evaluation are shown below.
For use as mice, female nude mice (BALB/cAJcl-nu/nu) at 5 to 6 weeks of age were purchased from Charles River Japan, Inc. As human cancer cells, a gastric cancer cell line, OCUM-2MLN, was used.
OCUM-2MLN cells were cultured in D-MEM medium (FUJIFILM Wako Pure Chemical Corporation, Japan) supplemented with 10% fetal bovine serum (FBS; NICHIREI BIOSCIENCE), 1/100 volumes of a penicillin-streptomycin mixture (FUJIFILM Wako Pure Chemical Corporation, Japan) and 1/100 volumes of a sodium pyruvate solution (SIGMA-ALDRICH). The cells to be transplanted were detached with a 0.05 w/v % trypsin/0.53 mmol/L EDTA 4Na solution (FUJIFILM Wako Pure Chemical Corporation, Japan) and washed with PBS, and 1× 10^6 cells per mouse were transplanted into the gastric wall of each mouse. […] After 3 weeks had passed from the transplantation, the mice were sacrificed, and the short- and long-axis diameters of tumors formed in their gastric walls were each measured with a caliper. The tumor size was calculated according to the following: short-axis diameter (mm)×long-axis diameter (mm).

B1: Hu5A-5E11: humanized antibody VH1/VL1; VH SEQ ID NO: 76, VL SEQ ID NO: 78 (antibody, V domains shown)
VH: QVQLVQSGAEVKKPGSSVKVSCKASGYAFSDYWMNWVRQAPGQGLEWIGQIYPGSGDTNYNAKFKGKGTITADKSTSTAYMELSSLRSEDTAVYYCARERDYDVAMDYWGQGTTVTVSS
VL: DIQMTQSPSSLSASVGDRVTITCKASQDINKYIAWFQQKPGKAPKLVIHYTSILQPGVPSRFSGSGSGTDYTFTISSLQPEDIATYYCLQYDNLPWTFGGGTKVEIK
In the case of B1, the “Inhibitory activity against the binding of MsCXCL1 to cells (fluorescence intensity)” value in assay [1] is listed as “reduce the fluorescence intensity of the cells in an antibody concentration-dependent manner”.

B2: 028-8-12: human antibody against CXCL1 from the human ADLib technique; VH SEQ ID NO: 25, VL SEQ ID NO: 29 (antibody, listed as Gallus gallus, V domains shown)
VH: EVQLLESGGGLVQPGGSLRLSCAASGFTFSELSMSWVRQAPGKGLEWVSAISGSGGSTYYADSVKGRFTISRDNSKNTLYLQMNSLRAEDTAVYYCAREGGRLEPYYYYYAMDVWGQGTPVTVSS
VL: DIQMTQSPSSLSASVGDRVTITCRASQSISDNLHWYQQKPGKAPKLLIYDASNLESGVPSRFSGSGSGTDFTLTINSLQPEDFATYYCQQYYSTPLTFGQGTKLEIK
Take B2: the “CXCR2-expressing cell migration inhibitory activity Chemotaxis assay” value in assay [2] is on record as “∘”. Moreover, the “Binding to human CXCL3” value in assay [3] is “also bind”.

B3: 4A-2F7: mouse monoclonal anti-HuCXCL1 antibody clone; VH SEQ ID NO: 9, VL SEQ ID NO: 13 (antibody, listed as Mus musculus, V domains shown)
VH: QVTLKESGPGILKPSQTLSLTCSFSGFSLSTSGMGVDWIRQPSGKGLEWLAHIWWDDDKYYNPSLKSQLTISKDTSRNQVFLKITSVDTADTATYYCARSYGYDMDYYAMDYWGQGTSVTVSS
VL: DIQMTQSPSSLSASLGERVSLTCRASQEISGYLSWLQQKPDGTIKRLIYAASTLDSGVPKRFSGSRSGSDYSLTISSLESEDFADYYCLQYASYPPWTFGGGTKLEIK
Consider B3, for which the “CXCR2-expressing cell migration inhibitory activity Chemotaxis assay” value in assay [2] is “∘”. In assay [3], the “Binding to human CXCL3” value is “also bind”. Moreover, the “Binding to human CXCL5” value in assay [4] is on record as “also bind”. Also, in assay [5], the “Antitumor activity (tumor growth, tumor size)” value was “significantly suppress tumor growth”.

B4: 5A-5E11: mouse monoclonal anti-HuCXCL1 antibody clone; VH SEQ ID NO: 17, VL SEQ ID NO: 21 (antibody, listed as Mus musculus, V domains shown)
VH: QVQLQQSGAELVRPGSSVKISCKASGYAFSDYWMNWVKQRPGQGLEWIGQIYPGDGDTNYNGKFKGKGTLTADKSSSTAYMQLNSLTSEDSAVYFCARERDYDVAMDYWGQGTSVTVSS
VL: DIQMTQSPSSLSASLGGKVTITCKASQDINKYIAWFQHKPGKGPRLVIHYTSILQPGIPSRFSGVGSGRDYSFSIRNLEPEDIATYYCLQYDNLPWTFGGGTKLEIK
For B4, the “CXCR2-expressing cell migration inhibitory activity Chemotaxis assay” value in assay [2] was “∘”. Also, the “Binding to human CXCL3” value in assay [3] is given as “also bind”. In addition, in assay [4], the “Binding to human CXCL5” value is reported as “also bind”. Besides, in assay [5], the “Antitumor activity (tumor growth, tumor size)” value is “significantly suppress tumor growth”.

B5: 1A-7H10: mouse monoclonal anti-HuCXCL1 antibody clone; VH SEQ ID NO: 1, VL SEQ ID NO: 5 (antibody, listed as Mus musculus, V domains shown)
VH: QVQLKESGPVLVAPSQSLSITCSVSGFSSTTYGVHWVRQPPGQGLEWLGVIWAGGSTNYNSALMSRLSISKDNSKSQVFLKMNSLQTDDTAMYYCATQYHYPFAYWGQGTLVTVSA
VL: NIVMTQSPKSMSMSVGERVTLSCKASENVGIYVSWYQQKPEQSPKLMIYGASNRNTGVPDRFTGSGSATDFTLTISSVQAEDLADYYCGQSYSYPLTFGAGTKLELK
Turning to B5, the “CXCR2-expressing cell migration inhibitory activity Chemotaxis assay” value in assay [2] is given as “∘”. Moreover, in assay [3], the “Binding to human CXCL3” value is “also bind”.

The values are drawn from US20250154240A1, “ANTI-HUMAN CXCL1 ANTIBODY” (CHIOME BIOSCIENCE INC., priority 2022, published 2025).
